Biological target: human GPC3 full-length protein on cells (CHO-K1-hGPC3; cells expressing GPC3) (human, UniProt P51654 25-580)
Assay: cell-based or functional assay

human GPC3 full-length protein on cells (CHO-K1-hGPC3; cells expressing GPC3), sequence (P51654 25-580, form in doubt): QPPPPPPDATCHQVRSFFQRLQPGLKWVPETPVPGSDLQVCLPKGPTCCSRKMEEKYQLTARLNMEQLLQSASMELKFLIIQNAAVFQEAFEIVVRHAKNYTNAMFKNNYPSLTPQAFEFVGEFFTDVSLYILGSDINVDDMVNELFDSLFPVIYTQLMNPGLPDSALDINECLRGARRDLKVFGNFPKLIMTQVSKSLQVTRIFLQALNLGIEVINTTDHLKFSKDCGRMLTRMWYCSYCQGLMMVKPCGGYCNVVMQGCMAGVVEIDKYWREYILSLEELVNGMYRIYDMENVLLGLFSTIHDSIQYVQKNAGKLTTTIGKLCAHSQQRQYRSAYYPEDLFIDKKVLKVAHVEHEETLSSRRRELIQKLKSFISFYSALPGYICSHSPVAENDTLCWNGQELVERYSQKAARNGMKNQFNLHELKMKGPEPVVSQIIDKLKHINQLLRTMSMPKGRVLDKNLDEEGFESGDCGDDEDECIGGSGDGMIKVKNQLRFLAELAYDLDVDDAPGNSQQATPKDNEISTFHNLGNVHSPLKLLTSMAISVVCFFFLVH

- CDC, IC50: 0.308 nM
B1: humanized antibody Ab9 (antibody, human IgG1, kappa, V domains shown)
VH: QVQLVQSGAEVKKPGASVKVSCKASGYTFTDYEMHWVRQAPGQGLEWMGAIDPKTGRTAYNQKFKDRVTLTADKSTSTAYMELSSLTSEDTAVYYCTRYYSYAYWGQGTLVTVSS
VL: DVVMTQSPLSLSVTPGEPASISCRSSQSLVHSNRNTYLQWYLQKPGQPPQLLIYKVSNRFSGVPDRFSGSGSGTDFTLKISRVEAEDVGVYYCSQSIHVPYTFGQGTKLEIKR

Source: patent WO2021110095A1 (dated 2021)
